Our source for the Kd values is article PMC2887959.

Where two headings read alike, the source gives them in different places.

Usually Kd stands for the free concentration of one partner at which half of the binding sites on the other are occupied at equilibrium, for simple one-to-one binding.

What all share (test): fluorescence anisotropy
The target of data set [1] is T1, IN catalytic core CC (IN50-213) (HIV-1, UniProt P04585 1197-1360).
Data set [2] deals with T1, IN catalytic core CC (IN50-213). This is another data set of the same source.
For data set [3], the target named is T2, IN deltaC (IN1-213) (HIV-1, UniProt P04585 1148-1360).
The target of data set [4] is T2, IN deltaC (IN1-213). The source holds these as a separate data set.

B1: U5A/U5B (dsDNA)
DNA 1: GTGTGGAAAATCTCTAGCAGT
DNA 2: ACTGCTAGAGATTTTCCACAC
Take B1: the Kd came out at 53 ± 13 nM in data set [1], 61 ± 10 nM in data set [2], 60 ± 4 nM in data set [3] and 64 ± 8 nM in data set [4].
